In patent US20210130799:

Tests used:
Experiment in all cases: cleavage_in_vitro
[1] = biological target: T1, TtCsm6 (Thermus thermophilus) (UniProt Q53W17); settings: cyclic, 3'-5' linked; c(AMP)4 amount required to activate RNase
T1 sequence: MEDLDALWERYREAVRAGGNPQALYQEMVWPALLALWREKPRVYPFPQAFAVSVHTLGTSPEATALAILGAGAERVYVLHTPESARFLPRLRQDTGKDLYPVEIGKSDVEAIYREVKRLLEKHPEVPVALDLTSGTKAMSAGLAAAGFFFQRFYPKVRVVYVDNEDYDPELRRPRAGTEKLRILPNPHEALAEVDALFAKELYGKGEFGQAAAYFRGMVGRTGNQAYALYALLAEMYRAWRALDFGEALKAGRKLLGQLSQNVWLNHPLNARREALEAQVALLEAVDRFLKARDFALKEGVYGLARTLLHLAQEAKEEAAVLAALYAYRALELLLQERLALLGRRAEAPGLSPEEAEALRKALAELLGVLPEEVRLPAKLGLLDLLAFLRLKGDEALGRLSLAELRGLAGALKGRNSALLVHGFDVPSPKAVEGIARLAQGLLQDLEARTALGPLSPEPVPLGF

[2] = tested on: StCsm6 (Streptococcus thermophilus DGCC8004)
[3] = tested on: StCsm6' (Streptococcus thermophilus DGCC8004)
[4] = cyclic, 3'-5' linked, c(AMP)6 amount sufficient to activate RNase on RNA NS

AAAA [c(AMP)4]
activity [1]: 50 nM

GGGCGGCAAAUUGAGGAUUUCGUAACUGUUUAAUUCUGUUCACUUAUUCCACCAACAAAAGGUGGCGA [RNA NS]
activity ([2]; lowest StCsm6 concentration for degradation with 0.5 uM cyclic oligoadenylate mix, 1 uM needed without, 1 mM EDTA, 37 C): 1 nM
activity ([3]; StCsm6' concentration for degradation with cyclic oligoadenylates, 1 uM needed without, 1 mM EDTA, 37 C): 1 nM

AAAAAA [c(AMP)6]
activity [2, 4]: 0.5 nM
activity [3, 4]: 5 nM
